US7067268
No end group written: not given here.

Experiments:
P2L-2Ca [1] = assay: competitive EIA: unlabeled antigen varied against HRP-labeled 19P2 ligand (17-31) on P2L-2C
P2L-1Ta [2] = assay: competitive EIA: unlabeled antigen varied against HRP-labeled 19P2 ligand (12-25) on P2L-1Ta
P2L-3Ta [3] = assay: competitive EIA against HRP-labeled 19P2 ligand (12-25); sentence prints 'P2L-1Ta' but stands in the P2L-3Ta passage and cites FIG. 7(b)
[4] = biological target: these antibodies (P2L-1Ta, P2L-3Ta, P2L-2Ta and P2L-4Ta); assay: competitive EIA against HRP-labeled 19P2 ligand (12-25); P2L-1Ta, P2L-3Ta, P2L-2Ta, P2L-4Ta (FIG. 9)
P2L-2Ca [5] = assay: competitive EIA on P2L-2C; ratio of the antigen concentrations giving (B/B0)=0.5
P2L-3Ta [6] = assay: competitive EIA: unlabeled antigen varied against HRP-labeled 19P2 ligand (12-25) on P2L-3Ta
P2L-1Ca = assay: competitive EIA: unlabeled antigen varied against HRP-labeled 19P2 ligand (17-31) on P2L-1C
P2L-1Ta [7] = assay: competitive EIA on P2L-1Ta; FIG. 7(a)
P2L-3Ta [8] = assay: competitive EIA against HRP-labeled 19P2 ligand (12-25); 'higher' as printed, though 25 nM against 4 nM points to lower

SRAHQHSMEIRTPDINPAWYAGRGIRPVGRF-NH2 [Bovine 19P2 ligand (1-31)]
IC50 (P2L-2Ca [1]): 50 nM

TPDINPAWYASRGIRPVGRF-NH2 [Human 19P2 ligand (12-31)]
IC50 (P2L-1Ta [2]): 4 nM | IC50 (P2L-3Ta [3]): 7 nM | fold of the reactivity against human 19P2 ligand (1-31) (P2L-3Ta [3]): 0.5 fold

SRTHRHSMEIRTPDINPAWYASRGIRPVGRX (C-terminal amide) [Human 19P2 ligand (1-31)]
IC50 [4]: 3 to 50 nM | IC50 (P2L-2Ca [1]): 1.5 nM | IC50 (P2L-1Ta [2]): 4 nM | antigen concentration detected, (B/B0)=0.9 (P2L-1Ta [2]): 0.1 nM | fold of the reactivity against bovine 19P2 ligand (1-31) (P2L-2Ca [5]): 33 fold | fold of the reactivity against rat 19P2 ligand (1-31) (P2L-2Ca [5]): 130 fold | IC50 (P2L-3Ta [6]): 4 nM | IC50 (P2L-1Ca): 3 nM

SRAHQHSMETRTPDINPAWYTGRGIRPVGRF-NH2 [Rat 19P2 ligand (1-31)]
IC50 (P2L-2Ca [1]): 200 nM | IC50 (P2L-1Ta [2]): 1 nM | IC50 (P2L-3Ta [3]): 25 nM | fold of the reactivity against human 19P2 ligand (1-31) (P2L-1Ta [7]): 4 fold | fold of the reactivity against human 19P2 ligand (1-31) (P2L-3Ta [8]): 6 fold
